From the supplement of paper PMC7125110
± gives the standard error. This sample holds only a part of the variants without activity.

B1: glmS ribozyme (parent)
chain: AUAAAAGCGCCAGAACUACAGAAAUGUAGUUGACGAGGAGGAGGUUUAUCGAAUUUUCGGCGGAUGCCUCCAAA

Assays:
Conditions in all cases: with glucosamine-6-phosphate
glucosamine-6-phosphate [1] = variants of: B1; experiment: self-cleavage kobs at 40 uM GlcN6P; higher = faster cleavage; RNA array
Outline: (§1)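 In situ transcription by E. coli RNA polymerase produced barcoded ribozyme variants on sequenced MiSeq chips, and a hybridised Cy3 probe tracked them at 37 °C. Glucosamine-6-phosphate was flowed in at 40 μM to 10 mM in HEPES/KCl/Mg(OAc)2 buffer. kcat and KM were taken from weighted Michaelis–Menten fits of kobs values from exponential decay fits.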

glucosamine-6-phosphate [2] = variants of: B1; experiment: self-cleavage kobs at 160 uM GlcN6P; higher = faster cleavage; RNA array
Outline: as §1

glucosamine-6-phosphate [3] = variants of: B1; experiment: self-cleavage kobs at 640 uM GlcN6P; higher = faster cleavage; RNA array
Outline: as §1

glucosamine-6-phosphate [4] = variants of: B1; experiment: self-cleavage kobs at 2500 uM GlcN6P; higher = faster cleavage; RNA array
Outline: as §1

glucosamine-6-phosphate [5] = variants of: B1; experiment: self-cleavage kobs at 10000 uM GlcN6P; higher = faster cleavage; RNA array
Outline: as §1

Variant	self-cleavage kobs at 40 uM GlcN6P (glucosamine-6-phosphate [1]) [s⁻¹]	self-cleavage kobs at 160 uM GlcN6P (glucosamine-6-phosphate [2]) [s⁻¹]	self-cleavage kobs at 640 uM GlcN6P (glucosamine-6-phosphate [3]) [s⁻¹]	self-cleavage kobs at 2500 uM GlcN6P (glucosamine-6-phosphate [4]) [s⁻¹]	self-cleavage kobs at 10000 uM GlcN6P (glucosamine-6-phosphate [5]) [s⁻¹]
C11G G29C U31G G37A C68G	< 1e-05	–	–	–	–
C11A A15C C50G	0.000118 ± 3.3e-05	0.000386 ± 0.00017	0.000113 ± 3.6e-05	7.75e-05 ± 3.1e-05	4.96e-05 ± 1.5e-05
C11A A14G A52C G63A	< 1e-05	–	–	–	–
C11A G66C	< 1e-05	–	–	< 1e-05	–
C11G A14C	< 1e-05	< 1e-05	–	–	–
C11A G29U C50G	6.35e-05 ± 1.7e-05	0.000296 ± 0.00011	–	5.28e-05 ± 2.3e-05	–
C10U G35U C67U	< 1e-05	–	–	–	–
C10U G41U U56C C70U	< 1e-05	–	–	–	–
C11G A12C G38A	< 1e-05	–	–	–	–
C11A A53U U57G C71A	0.000108 ± 2.7e-05	–	0.000248 ± 7.4e-05	0.000141 ± 6.7e-05	9.23e-05 ± 2.2e-05
C11A G60U	< 1e-05	< 1e-05	< 1e-05	< 1e-05	< 1e-05
C10U A52U	< 1e-05	< 1e-05	< 1e-05	< 1e-05	< 1e-05
C10U G40U A48U	< 1e-05	–	< 1e-05	–	< 1e-05
C11A C68A	< 1e-05	–	–	–	–
C11G A14U A39U	< 1e-05	–	–	–	–
C10G G44U C68U C70U	< 1e-05	–	–	–	< 1e-05
C10U C34G C58U	< 1e-05	–	–	–	–
C10U A33C U47G G51U C58G A64U C70A	7.66e-05 ± 2.4e-05	–	–	–	0.000101 ± 2.1e-05
C10U G60U C67U	< 1e-05	< 1e-05	< 1e-05	–	< 1e-05
C11A C34U	< 1e-05	–	< 1e-05	–	–
C11A A12G U65A C67G	0.000126 ± 3e-05	0.000766 ± 0.00026	0.000193 ± 6.4e-05	0.000105 ± 2.9e-05	5.83e-05 ± 1.5e-05
C10G G51C C58A	< 1e-05	–	< 1e-05	–	< 1e-05
C10U G38U G41A	< 1e-05	–	–	–	–
C10U G29C G35A G44U C50A U55C A64U	< 1e-05	–	–	–	< 1e-05
C10U A36G C71G	< 1e-05	–	–	–	< 1e-05

Variant	self-cleavage kobs at 40 uM GlcN6P (glucosamine-6-phosphate [1]) [s⁻¹]	self-cleavage kobs at 160 uM GlcN6P (glucosamine-6-phosphate [2]) [s⁻¹]	self-cleavage kobs at 640 uM GlcN6P (glucosamine-6-phosphate [3]) [s⁻¹]	self-cleavage kobs at 2500 uM GlcN6P (glucosamine-6-phosphate [4]) [s⁻¹]	self-cleavage kobs at 10000 uM GlcN6P (glucosamine-6-phosphate [5]) [s⁻¹]
C10U G37U G43U A52G G60U	< 1e-05	–	–	< 1e-05	< 1e-05
C11G G32C G38A A42C G60C	< 1e-05	–	–	< 1e-05	–
C10U G35C A52U	< 1e-05	–	–	–	–
C11A G40U G41U G60C U65C	< 1e-05	–	–	–	< 1e-05
C11G A36C G37U G38U U49A G63C U65A	< 1e-05	–	–	–	< 1e-05
C11A G51A	< 1e-05	–	< 1e-05	–	< 1e-05
C11G G35C	< 1e-05	< 1e-05	< 1e-05	< 1e-05	< 1e-05
C11G G29A U49G U69G	4.27e-05 ± 1.7e-05	–	–	–	–
C10U A33U A52U	< 1e-05	–	< 1e-05	–	< 1e-05
C10U G13C G40A	< 1e-05	< 1e-05	–	–	–
C11A G32C	< 1e-05	–	–	–	–
C11A U69G	5.85e-05 ± 9.2e-06	0.000398 ± 0.00018	0.000166 ± 4.5e-05	–	5.17e-05 ± 1.1e-05
C11A C50A C68G	5.45e-05 ± 1.8e-05	0.000352 ± 0.0001	0.000154 ± 5.6e-05	6.2e-05 ± 2.5e-05	3.73e-05 ± 1.7e-05
C11G C58U	< 1e-05	< 1e-05	–	–	< 1e-05
C11G A36G G40C	< 1e-05	< 1e-05	< 1e-05	< 1e-05	< 1e-05
C10G G63C	< 1e-05	< 1e-05	< 1e-05	< 1e-05	–
C11A C16A U47C C61U	< 1e-05	–	–	< 1e-05	–
C11A A48G	< 1e-05	< 1e-05	< 1e-05	< 1e-05	–
C11G G13U	< 1e-05	< 1e-05	< 1e-05	< 1e-05	< 1e-05
C10G U47A	< 1e-05	< 1e-05	< 1e-05	–	–
C10G U47G	< 1e-05	–	–	–	< 1e-05
C11G C16A G38C	< 1e-05	< 1e-05	–	–	< 1e-05
C10U A14G A52U G60U	< 1e-05	–	–	< 1e-05	< 1e-05
C10U G40U U49C C70A	< 1e-05	–	–	–	< 1e-05
C11A U49C	< 1e-05	< 1e-05	–	< 1e-05	< 1e-05

Variant	self-cleavage kobs at 40 uM GlcN6P (glucosamine-6-phosphate [1]) [s⁻¹]	self-cleavage kobs at 160 uM GlcN6P (glucosamine-6-phosphate [2]) [s⁻¹]	self-cleavage kobs at 640 uM GlcN6P (glucosamine-6-phosphate [3]) [s⁻¹]	self-cleavage kobs at 2500 uM GlcN6P (glucosamine-6-phosphate [4]) [s⁻¹]	self-cleavage kobs at 10000 uM GlcN6P (glucosamine-6-phosphate [5]) [s⁻¹]
C10U U31G G40U	< 1e-05	–	–	–	–
C10U G40A A48C	< 1e-05	–	–	–	–
C11G A39G U46G C61U U65C C68A	< 1e-05	–	–	–	< 1e-05
C11G A48C	< 1e-05	–	–	–	< 1e-05
C11G C16A A33U C58G	< 1e-05	–	–	–	–
C11G A15U C34G A39U A48G	< 1e-05	–	< 1e-05	< 1e-05	–
C10U G62U	< 1e-05	< 1e-05	< 1e-05	< 1e-05	< 1e-05
C10U G37A	< 1e-05	< 1e-05	–	–	< 1e-05
C10U G37C	< 1e-05	–	< 1e-05	–	< 1e-05
C11A A42G U56A	< 1e-05	–	–	2.82e-05 ± 1.3e-05	7.2e-05 ± 1.5e-05
C11A G32A A39U	< 1e-05	–	< 1e-05	–	–
C10U C11U A64G U65A	< 1e-05	–	–	–	–
C11A U46A	< 1e-05	–	< 1e-05	–	< 1e-05
C10U C11U U56G G62U	< 1e-05	–	–	–	< 1e-05
C11A G59A G60A A64U	< 1e-05	–	–	–	–
C10U G41A	< 1e-05	< 1e-05	< 1e-05	< 1e-05	< 1e-05
C11A C34G G43C G51U G60C	< 1e-05	–	< 1e-05	–	–
C11A C16G U54A C68A	6.79e-05 ± 2.4e-05	–	–	–	5.11e-05 ± 2e-05
C11A A14G G29A G35A A53G	< 1e-05	–	–	–	–
C11G A52C	< 1e-05	< 1e-05	< 1e-05	< 1e-05	< 1e-05
C11G A36G	< 1e-05	< 1e-05	< 1e-05	< 1e-05	< 1e-05
C11A G59C	< 1e-05	< 1e-05	< 1e-05	–	–
C10G U30G G40U	< 1e-05	–	–	–	–
C10U C58A C68A	< 1e-05	–	–	–	< 1e-05
C10U A14U C16G	< 1e-05	–	–	–	–

Variant	self-cleavage kobs at 40 uM GlcN6P (glucosamine-6-phosphate [1]) [s⁻¹]	self-cleavage kobs at 160 uM GlcN6P (glucosamine-6-phosphate [2]) [s⁻¹]	self-cleavage kobs at 640 uM GlcN6P (glucosamine-6-phosphate [3]) [s⁻¹]	self-cleavage kobs at 2500 uM GlcN6P (glucosamine-6-phosphate [4]) [s⁻¹]	self-cleavage kobs at 10000 uM GlcN6P (glucosamine-6-phosphate [5]) [s⁻¹]
C10U U45G G51U A64U	< 1e-05	–	–	–	< 1e-05
C11A A48U A52U	< 1e-05	–	–	–	< 1e-05
C10U G37C G44U U65C	< 1e-05	< 1e-05	< 1e-05	< 1e-05	–
C10G G40C C70G	< 1e-05	< 1e-05	< 1e-05	< 1e-05	< 1e-05
C11A A12C G44C U49A	< 1e-05	< 1e-05	< 1e-05	< 1e-05	< 1e-05
C11G A33C	< 1e-05	< 1e-05	–	< 1e-05	–
C10U C16U U47C U65C	< 1e-05	–	–	–	–
C10U C34G G41U A52U C58A G66A C71A	< 1e-05	–	–	–	–
C10G U55G	< 1e-05	–	–	–	–
C10G G43A G62U	< 1e-05	–	< 1e-05	–	–
C11A G43U	< 1e-05	< 1e-05	< 1e-05	–	< 1e-05
C11G A39U G60A	< 1e-05	< 1e-05	< 1e-05	< 1e-05	–
C10U U65C	< 1e-05	–	–	–	< 1e-05
C11A A36C	< 1e-05	< 1e-05	< 1e-05	< 1e-05	< 1e-05
C10G G41C	< 1e-05	< 1e-05	< 1e-05	< 1e-05	< 1e-05
C11A G35A U55A G60U U65A C68G	0.00461 ± 0.0018	–	–	–	5.33e-05 ± 1.7e-05
C11A A48C U55C C61A	< 1e-05	–	–	–	–
C10U A52C U57G	< 1e-05	–	< 1e-05	< 1e-05	< 1e-05
C10U U31C G66U	< 1e-05	< 1e-05	–	–	< 1e-05
C10U G43U C70A	< 1e-05	–	–	–	–
C11G A15G A53C	< 1e-05	–	–	< 1e-05	–
C10U C11G G43C G59A	< 1e-05	< 1e-05	–	< 1e-05	–
